For experiment [1], the target named is T1, chimeric Hu-Leptin/Mu-EPO receptor (human; mouse, UniProt P48357 22-839; P14753 250-507).
T1 sequence (looked up): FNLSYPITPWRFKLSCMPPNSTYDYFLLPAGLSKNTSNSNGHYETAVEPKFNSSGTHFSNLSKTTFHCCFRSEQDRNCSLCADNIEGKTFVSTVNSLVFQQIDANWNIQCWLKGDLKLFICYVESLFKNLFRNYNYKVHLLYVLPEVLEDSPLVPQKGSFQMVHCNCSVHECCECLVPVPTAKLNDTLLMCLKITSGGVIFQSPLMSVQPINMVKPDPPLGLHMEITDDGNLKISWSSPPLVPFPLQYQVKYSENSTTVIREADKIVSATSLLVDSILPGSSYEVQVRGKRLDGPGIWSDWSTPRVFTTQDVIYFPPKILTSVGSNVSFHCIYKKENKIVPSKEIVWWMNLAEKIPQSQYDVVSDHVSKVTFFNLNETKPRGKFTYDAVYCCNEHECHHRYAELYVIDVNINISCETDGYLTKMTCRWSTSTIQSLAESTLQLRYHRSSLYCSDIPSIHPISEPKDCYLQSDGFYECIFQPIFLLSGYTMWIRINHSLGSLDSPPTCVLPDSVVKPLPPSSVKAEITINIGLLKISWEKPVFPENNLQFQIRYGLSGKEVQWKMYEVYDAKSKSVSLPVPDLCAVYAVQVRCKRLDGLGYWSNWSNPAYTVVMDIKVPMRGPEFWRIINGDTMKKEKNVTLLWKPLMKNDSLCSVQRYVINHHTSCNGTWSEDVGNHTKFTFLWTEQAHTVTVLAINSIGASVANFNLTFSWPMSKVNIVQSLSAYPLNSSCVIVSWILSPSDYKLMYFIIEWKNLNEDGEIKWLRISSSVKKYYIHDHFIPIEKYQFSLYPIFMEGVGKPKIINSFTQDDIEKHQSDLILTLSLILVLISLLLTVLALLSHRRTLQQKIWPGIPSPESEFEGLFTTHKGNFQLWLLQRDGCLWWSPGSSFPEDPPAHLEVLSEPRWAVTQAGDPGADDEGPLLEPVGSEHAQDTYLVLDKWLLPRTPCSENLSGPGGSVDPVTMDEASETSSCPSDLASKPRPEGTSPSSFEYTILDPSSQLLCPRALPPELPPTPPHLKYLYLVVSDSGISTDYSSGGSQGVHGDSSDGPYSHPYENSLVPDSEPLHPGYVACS
Put plainly: cell-based or functional assay.

In another experiment the target is T2, Rat serum albumin (rat, UniProt P02770 25-608).
T2 construct: Amine-coupled to the GLC sensor chip; also called Rat SA; RSA
Put plainly: SPR (BioRad ProteOn XPR36), albumin amine-coupled on GLC chip, polypeptide as analyte, 25 C.

A further experiment addresses T3, Human serum albumin (human, UniProt P02768 25-609).
T3 construct: Amine-coupled to the GLC sensor chip; also called Human SA; HSA
The description is as above.

The target in the next experiment is T4, Monkey serum albumin (monkey).
T4 construct: Amine-coupled to the GLC sensor chip; also called Monkey SA
The experiment is described as above.

The next experiment addresses T5, Dog serum albumin (dog, UniProt P49822 25-608).
T5 construct: Amine-coupled to the GLC sensor chip; also called Dog SA
Described as above.

The next experiment deals with T6, Mouse serum albumin (mouse, UniProt P07724 25-608).
T6 construct: Amine-coupled to the GLC sensor chip; also called Mouse SA
The experiment is described as above.

Substitutions are numbered along the chain they refer to. Where only a bound is given, the exact number is not on record here.

The values that follow come from patent US20160137709A1 (AMRYT PHARMACEUTICALS, published 2016).

One may read the Kd as the equilibrium constant for the complex coming apart.

T2 sequence (P02770 25-608 limits assumed): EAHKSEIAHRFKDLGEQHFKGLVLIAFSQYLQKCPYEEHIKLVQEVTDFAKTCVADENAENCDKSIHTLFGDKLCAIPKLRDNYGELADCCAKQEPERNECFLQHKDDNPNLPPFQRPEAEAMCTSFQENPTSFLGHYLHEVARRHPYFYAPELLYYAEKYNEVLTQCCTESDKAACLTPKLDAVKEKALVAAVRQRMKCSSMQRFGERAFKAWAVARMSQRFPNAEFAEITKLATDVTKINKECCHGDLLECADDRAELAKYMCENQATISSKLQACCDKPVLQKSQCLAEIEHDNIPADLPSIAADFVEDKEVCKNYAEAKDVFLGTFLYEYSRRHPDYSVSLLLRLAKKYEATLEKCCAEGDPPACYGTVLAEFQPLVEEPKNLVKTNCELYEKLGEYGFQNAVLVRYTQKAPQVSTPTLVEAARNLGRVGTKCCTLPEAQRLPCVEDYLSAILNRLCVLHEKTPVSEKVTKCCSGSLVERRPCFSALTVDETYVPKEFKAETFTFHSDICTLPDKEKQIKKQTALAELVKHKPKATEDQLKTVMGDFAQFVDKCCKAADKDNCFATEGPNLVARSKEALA
T3 sequence (P02768 25-609 limits assumed): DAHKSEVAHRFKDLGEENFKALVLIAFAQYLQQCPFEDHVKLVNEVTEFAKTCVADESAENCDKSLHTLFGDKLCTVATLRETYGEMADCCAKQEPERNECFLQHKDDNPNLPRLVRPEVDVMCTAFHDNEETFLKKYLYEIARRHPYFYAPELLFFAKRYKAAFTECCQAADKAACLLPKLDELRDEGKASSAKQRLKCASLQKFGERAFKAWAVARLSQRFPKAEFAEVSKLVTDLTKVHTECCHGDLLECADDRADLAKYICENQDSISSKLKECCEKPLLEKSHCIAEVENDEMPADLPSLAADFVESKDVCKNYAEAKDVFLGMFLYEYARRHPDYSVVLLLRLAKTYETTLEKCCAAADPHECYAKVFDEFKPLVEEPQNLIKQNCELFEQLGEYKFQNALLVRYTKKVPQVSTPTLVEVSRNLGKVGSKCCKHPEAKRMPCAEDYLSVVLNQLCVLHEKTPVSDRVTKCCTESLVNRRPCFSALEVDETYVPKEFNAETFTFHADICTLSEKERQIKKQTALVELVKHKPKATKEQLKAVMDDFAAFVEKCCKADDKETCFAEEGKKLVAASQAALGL
T5 sequence (P49822 25-608 limits assumed): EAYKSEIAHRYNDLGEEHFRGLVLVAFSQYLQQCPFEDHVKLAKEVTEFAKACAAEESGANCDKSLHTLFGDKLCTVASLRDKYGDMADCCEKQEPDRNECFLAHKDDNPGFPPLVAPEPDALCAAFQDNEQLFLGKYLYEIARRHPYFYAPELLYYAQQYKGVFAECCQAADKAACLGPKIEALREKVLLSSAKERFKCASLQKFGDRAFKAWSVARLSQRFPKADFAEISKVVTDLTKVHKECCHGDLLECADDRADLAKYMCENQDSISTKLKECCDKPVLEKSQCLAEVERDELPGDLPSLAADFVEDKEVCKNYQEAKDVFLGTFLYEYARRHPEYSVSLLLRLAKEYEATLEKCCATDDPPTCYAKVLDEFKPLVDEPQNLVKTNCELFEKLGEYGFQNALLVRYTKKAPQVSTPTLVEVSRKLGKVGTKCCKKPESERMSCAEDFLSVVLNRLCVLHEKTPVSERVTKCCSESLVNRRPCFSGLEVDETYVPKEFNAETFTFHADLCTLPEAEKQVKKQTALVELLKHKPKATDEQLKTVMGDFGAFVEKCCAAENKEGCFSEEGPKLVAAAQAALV
T4 sequence (A2V9Z4 25-608): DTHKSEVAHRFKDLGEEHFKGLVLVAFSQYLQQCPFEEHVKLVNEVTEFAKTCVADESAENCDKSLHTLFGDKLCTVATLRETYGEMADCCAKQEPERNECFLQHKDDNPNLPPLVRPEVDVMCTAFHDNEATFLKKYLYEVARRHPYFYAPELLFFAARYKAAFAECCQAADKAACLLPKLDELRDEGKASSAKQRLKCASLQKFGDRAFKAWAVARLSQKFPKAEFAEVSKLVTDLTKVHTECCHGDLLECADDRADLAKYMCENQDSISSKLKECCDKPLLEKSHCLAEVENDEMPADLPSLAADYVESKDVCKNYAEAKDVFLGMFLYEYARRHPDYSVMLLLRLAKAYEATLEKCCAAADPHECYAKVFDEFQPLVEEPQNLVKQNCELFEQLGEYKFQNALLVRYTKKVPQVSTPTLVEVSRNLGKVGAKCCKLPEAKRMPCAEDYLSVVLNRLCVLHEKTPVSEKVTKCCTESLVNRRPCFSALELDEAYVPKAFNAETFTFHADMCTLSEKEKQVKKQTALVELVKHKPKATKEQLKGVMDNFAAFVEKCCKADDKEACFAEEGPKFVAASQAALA
Experimental for Dog serum albumin: (§1) All studies were conducted on a BioRad ProteOn XPR36 system using a GLC sensor chip at 25 degrees C. For amine coupling the GLC chip was activated for 5 minutes using a 1:1 mixture of sulfo-NHS/EDC diluted 30-fold from the initial stock in water as shown below. Each albumin sample was diluted to 25 ug/ml in 10 mM Na Acetate pH 5.0 and injected for 5 minutes over separate sensor surfaces. Each surface was then blocked with 1 M ethanolamine pH 8.5. Each albumin was coupled at a density of 2000-5000 in resonance units.
(§2) The binding of an engineered polypeptide was tested using 5 nM as the highest concentration in a three-fold dilution series. The running buffer contained 10 mM HEPES pH 7.4, 150 mM NaCl, 3 mM EDTA and 0.005% tween-20. All samples were tested using a 3-fold dilution series. Each concentration series was tested in duplicate. The dissociation phase for the highest concentration was monitored for 3 hours.
Experimental for Human serum albumin: as §1, §2
Experimental for Monkey serum albumin: as §1, §2
Experimental for Mouse serum albumin: as §1, §2
Experimental for Rat serum albumin: as §1, §2

B1: Cmpd 3 (SEQ ID NO: 55) (other)
chain: MVPIQKVQDDTKTLIKTIVTRINDISHTQSVSSKQKVTGLEFIPGLHPILTLSKMDQTLAVYQQILTSMPSRNVIQISNDLENLRDLLHVLAFSKSCHLPQASGLETLESLGGVLEASGYSTEVVALSRLQGSLQDMLQQLDLSPGCTGGGGSASLAEAKVLANRELDKYGVSDFYKRLINKAKTVEGVEALKLHILAALP
Turning to B1, in experiment [1], the “EC50 nM (Obeca STAT5 assay)” value was found to be 0.095 nM.

B2: Cmpd 4 (SEQ ID NO: 56) (other)
chain: MVPIQKVQDDTKTLIKTIVTRINDISHTQSVSSKQKVTGLEFIPGLHPILTLSKMDQTLAVYQQILTSMPSRNVIQISNDLENLRDLLHVLAFSKSCHLPQASGLETLESLGGVLEASGYSTEVVALSRLQGSLQDMLQQLDLSPGCTGGGGSGGGSGGGSGGGSASLAEAKVLANRELDKYGVSDFYKRLINKAKTVEGVEALKLHILAALP
On to B2, for which the “EC50 nM (Obeca STAT5 assay)” value in experiment [1] was determined as 0.103 nM.

B3: Cmpd 18 (SEQ ID NO: 64) (other)
chain: MLAEAKVLANRELDKYGVSDYYKNIINRAKTVEGVRALKLHILAALPTGGGGSGGGSGGGSGGGSASVPIQKVQDDTKTLIKTIVTRINDISHTQSVSSKQKVTGLEFIPGLHPILTLSKMDQTLAVYQQILTSMPSRNVIQISNDLENLRDLLHVLAFSKSCHLPQASGLETLESLGGVLEASGYSTEVVALSRLQGSLQDMLQQLDLSPGC
Turning to B3, in experiment [1], the “EC50 nM (Obeca STAT5 assay)” value stood at 0.322 nM.

B4: Compound 2 (SEQ ID NO: 54) (other)
chain: B3 chain with Y21F, N24R, I25L, R28K, R36E
notes: also called Cmpd 2; ABD1-A500
B4: the “EC50 nM (Obeca STAT5 assay)” value in experiment [1] was determined as 0.53 nM. Also, the Kd with Rat serum albumin was found to be 33 pM; in the experiment with Human serum albumin, 56 pM; with Monkey serum albumin it was 158 pM; with Dog serum albumin it was 358 pM; with Mouse serum albumin, 1970 pM.

B5: Cmpd 14 (SEQ ID NO: 60) (other)
chain: MLAEAKVLANRELDKYGVSDFYKRLINKAKTVEGVEALKLHILAALPTGGGGSGGGSGGGSGGGSASPIQRVQDDTKTLIKTIITRINDISPPQGVCSRPRVAGLDFIPRVQSVRTLSGMDQILATYQQILTSLQSRNVIQISNDLENLRDLLHVLAFSKSCPVPRARGSDTIKGLGNVLRASVHSTEVVALSRLKAALQDMLRQLDRNPGC
For B5, the “EC50 nM (Obeca STAT5 assay)” value in experiment [1] came out at 0.406 nM.

B6: Compound 15 (SEQ ID NO: 61) (other)
chain: B5 chain with C97S
notes: also called Cmpd 15; ABD1-HuSeal
For B6, in experiment [1], the “EC50 nM (Obeca STAT5 assay)” value was found to be 0.427 nM. Moreover, the Kd with Rat serum albumin is less than 2 pM; with Human serum albumin it was 12 pM; in the experiment with Monkey serum albumin, 17 pM; in the experiment with Dog serum albumin it was 40 pM; with Mouse serum albumin it was 277 pM.

B7: Cmpd 16 (SEQ ID NO: 62) (other)
chain: MLAEAKVLANRELDKYGVSDFYKRLINKAKTVEGVEALKLHILAALPTGPIQRVQDDTKTLIKTIITRINDISPPQGVCSPRVAGLDFIPRVQSVRTLSGMDQILATYQQILTSLQSRNVIQISNDLENLRDLLHVLAFSKSCPVPRARGSDTIKGLGNVLRASVHSTEVVALSRLKAALQDMLRQLDRNPGC
For B7, in experiment [1], the “EC50 nM (Obeca STAT5 assay)” value was 0.411 nM.

B8: Cmpd 9 (SEQ ID NO: 57) (other)
chain: MLAEAKVLANRELDKYGVSDFYKRLINKAKTVEGVEALKLHILAALPTGGGGSGGGSGGGSGGGSASISIEKIQADTKTLTKTIITRIIQLSTQNGVSTDQRVSGLDFIPGNQQFQNLADMDQTLAVYQQILSSLPMPDRTQISNDLENLRSLFALLATLKNCPFTRSDGLDTMEIWGGIVEESLYSTEVVTLDRLRKSLKNIEKQLDHIQGC
Turning to B8, the “EC50 nM (Obeca STAT5 assay)” value in experiment [1] came to 0.185 nM.

B9: Cmpd 1 (SEQ ID NO: 53) (other)
chain: MLAEAKVLANRELDKYGVSDFYKRLINKAKTVEGVEALKLHILAALPTGGGGASVPIQKVQDDTKTLIKTIVTRINDISHTQSVSSKQKVTGLEFIPGLHPILTLSKMDQTLAVYQQILTSMPSRNVIQISNDLENLRDLLHVLAFSKSCHLPQASGLETLESLGGVLEASGYSTEVVALSRLQGSLQDMLQQLDLSPGC
Consider B9, for which, in experiment [1], the “EC50 nM (Obeca STAT5 assay)” value is 0.628 nM.
